From paper PMC11058270, “Discovering a mitochondrion-localized BAHD acyltransferase involved in calystegine biosynthesis and engineering the production of 3β-tigloyloxytropane” (Nature Communications, 2024)

How the values were obtained:
[1] = test system: CC(C)(COP(=O)(O)OP(=O)(O)OC[C@H]1O[C@@H](n2cnc3c(N)ncnc32)[C@H](O)[C@@H]1OP(=O)(O)O)[C@@H](O)C(=O)NCCC(=O)NCCSC(=O)c1ccccc1; assay: steady-state kinetics, LC-MS product analysis; format: biochemical, Atropa belladonna; conditions: co-substrate 3β-tropanol, 50 mM glycine-NaOH pH 8.6, 30 °C
Excerpt: (§1) steady-state kinetics, LC-MS product analysis on TS (3β-tigloyloxytropane synthase; AbTS)

[2] = test system: C/C=C(\C)C(=O)SCCNC(=O)CCNC(=O)[C@H](O)C(C)(C)COP(=O)(O)OP(=O)(O)OC[C@H]1O[C@@H](n2cnc3c(N)ncnc32)[C@H](O)[C@@H]1OP(=O)(O)O; assay: steady-state kinetics, LC-MS product analysis; format: biochemical, Atropa belladonna; conditions: co-substrate 3β-tropanol, 50 mM glycine-NaOH pH 8.6, 30 °C
Excerpt: as §1

[3] = target: T1, TS (3β-tigloyloxytropane synthase; AbTS) (Atropa belladonna, UniProt A0AAF1BX09); assay: steady-state kinetics, LC-MS product analysis; format: biochemical; conditions: co-substrate 3β-tropanol; 50 mM glycine-NaOH pH 8.6, 30 °C
T1 construct: full-length codon-optimised CDS (TSopt) in pMAL-c5x, N-terminal MBP tag (cleavage not mentioned), E. coli BL21 (DE3), amylose resin
Excerpt: as §1

[4] = target: T2, PcICS (isobutyryl CoA synthetase) (Pseudomonas chlororaphis, UniProt Q5CD72); assay: enzyme assay, MS detection of tigloyl-CoA; format: biochemical
T2 construct: gene acsA; purified recombinant protein; tag and host for purification not described in main text

[5] = test system: CC(=O)SCCNC(=O)CCNC(=O)[C@H](O)C(C)(C)COP(=O)(O)OP(=O)(O)OC[C@H]1O[C@@H](n2cnc3c(N)ncnc32)[C@H](O)[C@@H]1OP(=O)(O)O; assay: steady-state kinetics, LC-MS product analysis; format: biochemical, Atropa belladonna; conditions: co-substrate 3β-tropanol, 50 mM glycine-NaOH pH 8.6, 30 °C
Excerpt: as §1

[6] = test system: CN1[C@@H]2CC[C@H]1C[C@H](O)C2; assay: steady-state kinetics, LC-MS product analysis; format: biochemical, Atropa belladonna; conditions: acyl donor tigloyl-CoA, 50 mM glycine-NaOH pH 8.6, 30 °C
Excerpt: as §1

Compound | Km [1] [µM] | kcat [1] [s⁻¹] | kcat/Km [1] [M⁻¹ s⁻¹] | Km [2] [µM] | kcat [2] [s⁻¹] | kcat/Km [2] [M⁻¹ s⁻¹] | Km [6] [µM] | kcat [6] [s⁻¹] | kcat/Km [6] [M⁻¹ s⁻¹] | further results
TS (3β-tigloyloxytropane synthase; AbTS) (Atropa belladonna; F46I/S40T) | 260 ± 80 | 0.08 ± 0.008 | 305 ± 54.1 | 150 ± 20 | 2.27 ± 0.1 | 14800 ± 1370 | – | – | – | –
CC(=O)SCCNC(=O)CCNC(=O)[C@H](O)C(C)(C)COP(=O)(O)OP(=O)(O)OC[C@H]1O[C@@H](n2cnc3c(N)ncnc32)[C@H](O)[C@@H]1OP(=O)(O)O [acetyl-CoA] | – | – | – | – | – | – | – | – | – | Km [3]: 90 ± 20 µM
C/C=C(\C)C(=O)O [tiglic acid] | – | – | – | – | – | – | – | – | – | enzyme assay, MS detection of tigloyl-CoA ([4]; co-substrate CoA): purified PcICS catalyzed the synthesis of tigloyl-CoA from CoA and tiglic acid
TS (3β-tigloyloxytropane synthase; AbTS) (Atropa belladonna; F46I) | 370 ± 90 | 0.04 ± 0.004 | 99.3 ± 13.3 | 410 ± 110 | 1.42 ± 0.17 | 3590 ± 570 | 320 ± 60 | 1.44 ± 0.09 | 4550 ± 594 | Km [5]: 350 ± 120 µM; kcat [5]: 0.005 ± 0.0008 s⁻¹; kcat/Km [5]: 16.2 ± 3.42 M⁻¹ s⁻¹
CC(C)(COP(=O)(O)OP(=O)(O)OC[C@H]1O[C@@H](n2cnc3c(N)ncnc32)[C@H](O)[C@@H]1OP(=O)(O)O)[C@@H](O)C(=O)NCCC(=O)NCCSC(=O)c1ccccc1 [benzoyl-CoA] | – | – | – | – | – | – | – | – | – | Km [3]: 920 ± 580 µM
CC(C)(COP(=O)(O)OP(=O)(O)OC[C@H]1O[C@@H](n2cnc3c(N)ncnc32)[C@H](O)[C@@H]1OP(=O)(O)O)[C@@H](O)C(=O)NCCC(=O)NCCS [CoA] | – | – | – | – | – | – | – | – | – | enzyme assay, MS detection of tigloyl-CoA ([4]; co-substrate tiglic acid): purified PcICS catalyzed the synthesis of tigloyl-CoA from CoA and tiglic acid
TS (3β-tigloyloxytropane synthase; AbTS) (Atropa belladonna) | – | – | – | 20 ± 4 | 7.38 ± 0.25 | 338000 ± 49100 | 360 ± 50 | 6.84 ± 0.3 | 19000 ± 1660 | –
TS (3β-tigloyloxytropane synthase; AbTS) (Atropa belladonna; S40T) | 840 ± 380 | 0.03 ± 0.006 | 32.7 ± 6.77 | 20 ± 3 | 11.4 ± 0.34 | 572000 ± 72300 | 320 ± 70 | 11.1 ± 0.81 | 35200 ± 5480 | Km [5]: 70 ± 10 µM; kcat [5]: 0.09 ± 0.004 s⁻¹; kcat/Km [5]: 1190 ± 155 M⁻¹ s⁻¹
